US20200087400A1 (EUREKA THERAPEUTICS, published 2020)

Experiments:
[1] = target: T1, HLA-A*02:01 on T2 cells with no peptide loaded (human); experiment: FACS; scFv phage on T2 cells without peptide
T1 construct: TAP-deficient T2 cells, no peptide loaded from outside; also called T2 cells without peptide loading
Procedure: (§1) Individual phage clones from enriched phage display panning pools against PSA146/HLA-A*02:01 complex were incubated in the coated plates. Binding of the phage clones was detected by HRP-conjugated anti-M13 antibodies and developed using HRP substrate. The absorbance was read at 450 nm. […] Then, unique antibody clones were identified through DNA sequencing of ELISA-positive clones. […] T2 cells loaded with different peptides and β2M were first stained with purified scFv phage clones, followed by staining with a mouse anti-M13 mAb, and finally R-PE conjugated horse anti-mouse IgG from Vector Labs. Each step of the staining was performed for between 30-60 minutes on ice and the cells were washed twice between stainings. All 16 clones recognized PSA146-loaded T2 cells specifically. FIG. 3 provides examples of PSA146/HLA-A*02:01 specific phage clone binding to peptide-loaded T2 cells through FACS.

[2] = target: T2, PSA 146-154 peptide/HLA-A*02:01 complex on the cell surface (human); experiment: FACS; scFv phage on PSA146-loaded live T2 cells
T2 construct: also called PSA146/HLA-A*02:01; PSA146-loaded T2 cells
Procedure: as §1

[3] = target: T3, control peptide A2E-1/HLA-A*02:01 complex on T2 cells (member of the P19 mixture) (human); experiment: FACS; scFv phage on T2 cells loaded with the P19 mixture
T3 construct: Loaded on T2 cells as part of the mixture of 19 control peptides
Procedure: as §1

[4] = target: T4, control peptide A2E-2/HLA-A*02:01 complex on T2 cells (member of the P19 mixture) (human); experiment: as above
T4 construct: Loaded on T2 cells as part of the mixture of 19 control peptides
Procedure: as §1

[5] = target: T5, control peptide A2E-3/HLA-A*02:01 complex on T2 cells (member of the P19 mixture) (human); experiment: as above
T5 construct: Loaded on T2 cells as part of the mixture of 19 control peptides
Procedure: as §1

[6] = target: T6, control peptide A2E-4/HLA-A*02:01 complex on T2 cells (member of the P19 mixture) (human); experiment: as above
T6 construct: Loaded on T2 cells as part of the mixture of 19 control peptides
Procedure: as §1

[7] = target: T7, control peptide A2E-5/HLA-A*02:01 complex on T2 cells (member of the P19 mixture) (human); experiment: as above
T7 construct: Loaded on T2 cells as part of the mixture of 19 control peptides
Procedure: as §1

[8] = target: T8, control peptide A2E-6/HLA-A*02:01 complex on T2 cells (member of the P19 mixture) (human); experiment: as above
T8 construct: Loaded on T2 cells as part of the mixture of 19 control peptides
Procedure: as §1

[9] = target: T9, control peptide A2E-7/HLA-A*02:01 complex on T2 cells (member of the P19 mixture) (human); experiment: as above
T9 construct: Loaded on T2 cells as part of the mixture of 19 control peptides
Procedure: as §1

[10] = target: T10, control peptide A2E-8/HLA-A*02:01 complex on T2 cells (member of the P19 mixture) (human); experiment: as above
T10 construct: Loaded on T2 cells as part of the mixture of 19 control peptides
Procedure: as §1

[11] = target: T11, control peptide A2E-9/HLA-A*02:01 complex on T2 cells (member of the P19 mixture) (human); experiment: as above
T11 construct: Loaded on T2 cells as part of the mixture of 19 control peptides
Procedure: as §1

[12] = target: T12, control peptide A2E-10/HLA-A*02:01 complex on T2 cells (member of the P19 mixture) (human); experiment: as above
T12 construct: Loaded on T2 cells as part of the mixture of 19 control peptides
Procedure: as §1

[13] = target: T13, control peptide A2E-11/HLA-A*02:01 complex on T2 cells (member of the P19 mixture) (human); experiment: as above
T13 construct: Loaded on T2 cells as part of the mixture of 19 control peptides
Procedure: as §1

[14] = target: T14, control peptide A2E-13/HLA-A*02:01 complex on T2 cells (member of the P19 mixture) (human); experiment: as above
T14 construct: Loaded on T2 cells as part of the mixture of 19 control peptides
Procedure: as §1

[15] = target: T15, control peptide A2E-14/HLA-A*02:01 complex on T2 cells (member of the P19 mixture) (human); experiment: as above
T15 construct: Loaded on T2 cells as part of the mixture of 19 control peptides
Procedure: as §1

[16] = target: T16, control peptide A2E-15/HLA-A*02:01 complex on T2 cells (member of the P19 mixture) (human); experiment: as above
T16 construct: Loaded on T2 cells as part of the mixture of 19 control peptides
Procedure: as §1

[17] = target: T17, control peptide A2E-16/HLA-A*02:01 complex on T2 cells (member of the P19 mixture) (human); experiment: as above
T17 construct: Loaded on T2 cells as part of the mixture of 19 control peptides
Procedure: as §1

[18] = target: T18, control peptide A2E-17/HLA-A*02:01 complex on T2 cells (member of the P19 mixture) (human); experiment: as above
T18 construct: Loaded on T2 cells as part of the mixture of 19 control peptides
Procedure: as §1

[19] = target: T19, control peptide A2E-19/HLA-A*02:01 complex on T2 cells (member of the P19 mixture) (human); experiment: as above
T19 construct: Loaded on T2 cells as part of the mixture of 19 control peptides
Procedure: as §1

[20] = target: T20, control peptide A2E-21/HLA-A*02:01 complex on T2 cells (member of the P19 mixture) (human); experiment: as above
T20 construct: Loaded on T2 cells as part of the mixture of 19 control peptides
Procedure: as §1

[21] = target: T21, control peptide A2E-23/HLA-A*02:01 complex on T2 cells (member of the P19 mixture) (human); experiment: as above
T21 construct: Loaded on T2 cells as part of the mixture of 19 control peptides
Procedure: as §1

B1: PSA146/HLA-A*02:01-specific scFv phage clone #8 (scFv, V domains shown)
VH: QVQLQQWGAGLLKPSETLSLTCAVKGGSFSDYYWSWIRQPPGKGLEWIGEINHSGGTNYNPSLKSRVTISVDTSKNQFSLKLLSVTAADTAVYYCARYNEYGSGYDKWGQGTLVTVSS
VL: QSVLTQPPSVSAAPGQKVTISCSGSSYNIGNNYVSWYQQLPGTAPKLLIYDNNKRPSGIPDRFSGSKSGTSATLGITGLQTGDEAEYYCGTWESSLSAYVFGTGTKVTVLG
B1: no binding [1]; binds [2]; no binding [3]. B1: no binding [4]; no binding [5]; no binding [6]. B1: no binding [7]; no binding [8]; no binding [9]. B1: no binding [10]; no binding [11]; no binding [12]. B1: no binding [13]; no binding [14]; no binding [15]. B1: no binding [16]; no binding [17]; no binding [18]. B1: no binding [19]; no binding [20]; no binding [21].
